Source: article PMC5700522

biological target: T1, PoxCxrA17-150 (Penicillium oxalicum HP7-1) (UniProt A0A2H4WV05); assay: EMSA; settings: 20 mM Tris-HCl pH 8.0, 50 mM KCl, 5% glycerol, 1 mM DTT, 0.1 mg/mL BSA; 40 ng FAM probe, 0-4.8 ug protein; 4% PAGE in TAE; temperature not stated
T1 sequence: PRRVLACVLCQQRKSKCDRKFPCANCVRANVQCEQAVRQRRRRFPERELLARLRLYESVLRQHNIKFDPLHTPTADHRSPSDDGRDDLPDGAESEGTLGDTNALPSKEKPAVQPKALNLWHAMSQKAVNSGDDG

binding, binds:
CGGCTTCCAAAGACCCCATATCGACGATCGGCGATTTGGGGAGGGACTAAAGTAGGAGGGAGAGGGAGGGAGCAGAGAGGGAGGGAGCAGAGAGAGAGGGAGAGAGGGAGAGCAAGGGTGAATAACAAGAAAGCGACGATGACAAGGTTGGTAAGATAAC (double strand) [PoxNsdD promoter (CxrA probe)]
GTGAAAGAGGTGCTTGTCGTGATCGCTTGCCATATGTTTCACTGTATGACTTGGGCACCGGAGCGGCACCGTGAATCAGGCTGGCCAAATCCATTGTCGGACTAGATGCTTCGTCCGTTGGGATCGTTGAATTGTGCGGAATCAGTGTCGTCGAGTGATACAATTGGGACGTGAGATTTAGTCACGACCGATAAGGTG (double strand) [PoxCxrB promoter (CxrA probe)]
TTAGGAGTGCTATAAGATGGCGACAGAAGTCGGCCGAGGAGGAAATTCTCGTTTCCATCCACCGAGTCTGCATACATTGGATTTCGAGTTGTCAAAATGAGATACGATTTGATTCTTGCCGCCGGCGCCACTCTGGCACTGGCCGTGCCCCAGGGCATCTCCAAGCGGGCCGGAGGCTTTGTCTGTAAGTTG (double strand) [POX01166/Cel5B promoter (CxrA probe)]
